Among the data in paper PMC6449081 are stoichiometry N and Dec binding, normalized to WT (%) values, retold here.

Usually stoichiometry N stands for the number of molecules, sites or subunits per partner or assembly.

Assay [1] addresses Dec Y71A with a C-terminal histidine tag (phage L). Briefly: native gel or EMSA; native gel of purified Dec variants in solution.
Assay [2] has as its target Dec E73R with a C-terminal histidine tag (phage L). The description is as above.
Assay [3] addresses Dec Y49E with a C-terminal histidine tag (phage L). Described as above.
For assay [4], the target named is Dec K30D with a C-terminal histidine tag (phage L). The assay is described as above.
Assay [5] deals with Dec Y31A with a C-terminal histidine tag (phage L). The assay is described as above.
The target in assay [6] is phage P22 coat protein E81R:E323R, in P22 phage particles (phage P22) (UniProt P26747). Briefly: co-sedimentation; purified Dec added to purified P22 phages with WT or variant coat protein; free Dec separated by cesium chloride density gradient sedimentation; phage bands TCA-precipitated, SDS-PAGE, Coomassie bands of coat and Dec quantitated and normalized to the ratio in native P22 particles bound with Dec.

Assay [7] has as its target phage L decoration protein Dec, capsid-bound trimer in native phage L virions (phage L). Briefly: cryo-EM structure; native phage L virions, vitrified; icosahedral reconstruction, 4.2 Å; NMR OB-fold of Dec and a coat homology model fitted into the map.

For the substance “Dec Y71A with a C-terminal histidine tag (natural protein)”, in assay [1], the stoichiometry N came to 3. The substance “Dec E73R with a C-terminal histidine tag (natural protein)” registered a stoichiometry N in assay [2] of 3. “Dec Y49E with a C-terminal histidine tag (natural protein)” returned a stoichiometry N in assay [3] of 3. In assay [4], “Dec K30D with a C-terminal histidine tag (natural protein)” returned a stoichiometry N of 3. As for “Dec Y31A with a C-terminal histidine tag (natural protein)”, the stoichiometry N in assay [5] worked out at 3.

As to “recombinant wild type Dec with a C-terminal histidine tag (natural protein)”, in assay [6], the Dec binding, normalized to WT (%) is < 20%. Substance “phage L decoration protein Dec, capsid-bound trimer in native phage L virions (natural protein)” had a stoichiometry N in assay [7] of 3.
